Results published in paper doi:10.1101/2023.12.19.572481 (bioRxiv, 2023).

Biological target: the molecule itself
Experiment: high-speed atomic force microscopy

B1: Recombinant Human Neuronal Pentraxin 1 Protein (NP1) (natural protein, UniProt Q15818 23-432, looked up)
chain: QDFGPTRFICTSVPVDADMCAASVAAGGAEELRSSVLQLRETVLQQKETILSQKETIRELTAKLGRCESQSTLDPGAGEARAGGGRKQPGSGKNTMGDLSRTPAAETLSQLGQTLQSLKTRLENLEQYSRLNSSSQTNSLKDLLQSKIDELERQVLSRVNTLEEGKGGPRNDTEERVKIETALTSLHQRISELEKGQKDNRPGDKFQLTFPLRTNYMYAKVKKSLPEMYAFTVCMWLKSSATPGVGTPFSYAVPGQANELVLIEWGNNPMEILINDKVAKLPFVINDGKWHHICVTWTTRDGVWEAYQDGTQGGSGENLAPYHPIKPQGVLVLGQEQDTLGGGFDATQAFVGELAHFNIWDRKLTPGEVYNLATCSTKALSGNVIAWAESHIEIYGGATKWTFEACRQIN
B1: binds.
